{"source": "patent US10894986B2", "about": "“Compositions and methods for treating or preventing prostate cancer and for detecting androgen receptor variants” (The Johns Hopkins University, priority 2008, dated 2021)", "key": {"[1]": {"system": "LNCaP cells", "assay": "MTS cell growth assay of transfected LNCaP cells", "type": "cell-based, human", "conditions": "charcoal stripped serum, absence or presence of 0.5 nM R1881", "description": "LNCaP cells were transfected by AR-V7 and the control vector. A. Cell growth in medium supplemented with charcoal stripped serum (CSS) in absence or presence of 0.5 nM R1881 were monitored by MTS assay. Ectopic expression of AR-V7 in LNCaP cells was confirmed by western blot analysis (B). As shown the growth rates of AR-V7 expressing cells surpassed those of parental cells cultured in the presence of synthetic androgen R1881."}, "[2]": {"system": "PSA reporter gene", "conditions": "exogenously transfected, AR-negative PC-3 cells, presence or absence of R1881", "source_text": "PC-3 cells were transfected with pEGFP-AR and pEGFP-AR-V7 to express the prototype AR or AR-V7 and examined for the localization of GFP-tagged AR proteins in the presence or absence of 5 nmol/L R1 881. […] PC-3 cells were transfected with vector control (EGFP), a LBD-truncated AR mutant (EGFP-Q640X), AR-V7 (EGFP-AR-V7), and prototype AR (EGFP-AR) and subjected to luciferase assays and Western blot analysis following culturing in the presence or absence of R1 881. […] LNCaP cells were transfected with pcDNA-AR-V7 to express the untagged AR-V7 protein or the control pcDNA vector and cultured with or without 10 nmol/L R1 881 before being harvested for Western blot analysis or RNA extraction for expression microarray analysis. The genes shown were the top 20 ranked genes by fold induction following R1 881 treatment in pcDNA empty vector-transfected LNCaP cells. Expression ratios of the test sample versus the common reference (pcDNA empty vector-transfected LNCaP without R1 881) were represented by red (>1) and green colors (<1).\npEGFP-AR and pEGFP-Q640X, which contain the full-length prototype AR and AR Q640X LBD-truncated mutant cDNA, were kind gifts of Dr. Jocelyn Céraline (Université Strasbourg, Strasbourg, France). The cDNA encoding the full-length AR-V7 was inserted into the pEGFP-C3 vector to express the GFP-AR-V7 fusion protein. […]"}, "[3]": {"system": "androgen-responsive genes (KLK3, KLK2, NKX3-1, FKBP5, TMPRSS2)", "conditions": "LNCaP cells, absence of androgens", "source_text": "LNCaP cells were transfected with pcDNA-AR-V7 to express the untagged AR-V7 protein or the control pcDNA vector and cultured with or without 10 nmol/L R1 881 before being harvested for Western blot analysis or RNA extraction for expression microarray analysis. The genes shown were the top 20 ranked genes by fold induction following R1 881 treatment in pcDNA empty vector-transfected LNCaP cells. Expression ratios of the test sample versus the common reference (pcDNA empty vector-transfected LNCaP without R1 881) were represented by red (>1) and green colors (<1)."}}}
{"molecule": "AR-V7: androgen receptor variant lacking the ligand binding domain, SEQ ID NO: 8, expressed from transfected cDNA (protein) MEVQLGLGRVYPRPPSKTYRGAFQNLFQSVREVIQNPGPRHPEAASAAPPGASLLLLQQQQQQQQQQQQQQQQQQQQQQQETSPRQQQQQQGEDGSPQAHRRGPTGYLVLDEEQQPSQPQSALECHPERGCVPEPGAAVAASKGLPQQLPAPPDEDDSAAPSTLSLLGPTFPGLSSCSADLKDILSEASTMQLLQQQQQEAVSEGSSSGRAREASGAPTSSKDNYLGGTSTISDNAKELCKAVSVSMGLGVEALEHLSPGEQLRGDCMYAPLLGVPPAVRPTPCAPLAECKGSLLDDSAGKSTEDTAEYSPFKGGYTKGLEGESLGCSGSAAAGSSGTLELPSTLSLYKSGALDEAAAYQSRDYYNFPLALAGPPPPPPPPHPHARIKLENPLDYGSAWAAAAAQCRYGDLASLHGAGAAGPGSGSPSAAASSSWHTLFTAEEGQLYGPCGGGGGGGGGGGGGGGGGGGGGGGEAGAVAPYGYTRPPQGLAGQESDFTAPDVWYPGGMVSRVPYPSPTCVKSEMGPWMDSYSGPYGDMRLETARDHVLPIDYYFPPQKTCLICGDEASGCHYGALTCGSCKVFFKRAAEGKQKYLCASRNDCTIDKFRRKNCPSCRLRKCYEAGMTLGEKFRVGNCKHLKMTRP", "values": [{"measurement": "cell growth", "setting": "[1]", "result": "promotes androgen independent growth"}, {"measurement": "PSA reporter gene expression", "setting": "[2]", "result": "induced PSA reporter gene expression in an androgen-independent manner"}, {"measurement": "induction of androgen-responsive genes", "setting": "[3]", "result": "induced canonical androgen-responsive genes"}]}
